Reference: article PMC5701058, “Structure of Rap1b bound to talin reveals a pathway for triggering integrin activation” (Nature Communications, 2017)
Where a chain is given by its changes, count along the chain named. Names and notes keep the numbering of the source. Each block holds one molecule with its values, some of them ahead of it.

T1: mouse RIAM-RAPH (149–438) (mouse, UniProt Q8R5A3 149-438)
T1 construct: RIAM, mouse, RA-PH domains, residues 149-438
T1 sequence (looked up): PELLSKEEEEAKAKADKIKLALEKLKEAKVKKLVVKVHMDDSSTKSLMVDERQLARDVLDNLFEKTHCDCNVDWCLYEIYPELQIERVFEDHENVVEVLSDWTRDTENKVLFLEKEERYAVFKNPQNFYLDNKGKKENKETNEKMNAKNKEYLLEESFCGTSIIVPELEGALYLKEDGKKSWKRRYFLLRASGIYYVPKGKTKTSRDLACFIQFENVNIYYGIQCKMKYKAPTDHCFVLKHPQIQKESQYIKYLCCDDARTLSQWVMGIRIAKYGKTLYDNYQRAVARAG

T2: Rap1b (G12V), loaded with GMP-PNP (active form) (human, UniProt P61224 1-184, G12V)
T2 construct: Rap1b, human, with G12V; Loaded with the GTP analog GMP-PNP; Made by mutagenesis; Probably full length; also called active Rap1b; GMP-PNP loaded Rap1b
T2 sequence (looked up): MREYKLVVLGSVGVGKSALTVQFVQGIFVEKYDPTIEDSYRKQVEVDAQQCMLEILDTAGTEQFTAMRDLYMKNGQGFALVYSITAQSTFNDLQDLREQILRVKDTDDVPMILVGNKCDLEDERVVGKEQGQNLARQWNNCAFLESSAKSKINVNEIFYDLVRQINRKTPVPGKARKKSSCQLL

B1: C-terminal truncated Rap1b (1–167, G12V), loaded with GMP-PNP (domain or fragment, human, UniProt P61224 1-167, looked up)
chain: MREYKLVVLGSVGVGKSALTVQFVQGIFVEKYDPTIEDSYRKQVEVDAQQCMLEILDTAGTEQFTAMRDLYMKNGQGFALVYSITAQSTFNDLQDLREQILRVKDTDDVPMILVGNKCDLEDERVVGKEQGQNLARQWNNCAFLESSAKSKINVNEIFYDLVRQINR
notes: Rap1b, human, residues 1-167, G12V, in pET28t; Loaded with GMP-PNP; isotope labelled or unlabelled as the NMR sample needed; The removal of the tag is told for the assignment samples; not shown: His6, N-terminal, cleaved
B2: GFP-Rap1b (G12V), loaded with GMP-PNP (natural protein, human, UniProt P61224 1-184, looked up)
chain: T2 sequence (looked up)
notes: Rap1b (G12V) in a pRSET vector; The name puts GFP first, the methods call it a C-terminal GFP fusion tag; also called GMP-PNP-loaded GFP-Rap1b (G12V); not shown: GFP, C-terminal, kept
B3: Rap1b (G12V), GMP-PNP loaded, of the GST pull-down of Fig. 3b (natural protein, human, UniProt P61224 1-184, looked up)
chain: T2 sequence (looked up)
notes: human full-length Rap1b in a pGST-1 vector, with G12V as the active form; also called active Rap1b
B4: membrane-anchored Rap1b_TM2 (G12V, C51S, C118S, C141S), loaded with GMP-PNP (natural protein, human, UniProt P61224 1-184, looked up)
chain: T2 sequence (looked up) with C51S, C118S, C141S
modifications: thiol group of Cys 180 joined to the maleimide group of the lipid PE MCC in vesicles
notes: Rap1b, human, with G12V, C51S, C118S, C141S; holds the C-terminal Cys 180 (so in the source); LUVs: 96% POPC, 1% PIP2, 3% PE MCC; MLVs: 87% POPC, 10% PIP2, 3% PE MCC; also called LUV-Rap1b; LUV-Rap1b (GMP-PNP); source: E. coli BL21 (DE3), purified, then tethered to vesicles (LUVs or MLVs) by thiol-maleimide crosslinking
B5: mouse talin-F0 (1–86) (domain or fragment, UniProt P26039 1-86, looked up)
chain: MVALSLKISIGNVVKTMQFEPSTMVYDACRMIRERIPEALAGPPNDFGLFLSDDDPKKGIWLEAGKALDYYMLRNGDTMEYRKKQR
notes: talin (talin-1), mouse, F0 domain, residues 1-86; Isotope labelled or unlabelled as the NMR sample needed; also called F0 domain of talin
B6: mouse talin-H (1–429) (domain or fragment, UniProt P26039 1-429, looked up)
chain: MVALSLKISIGNVVKTMQFEPSTMVYDACRMIRERIPEALAGPPNDFGLFLSDDDPKKGIWLEAGKALDYYMLRNGDTMEYRKKQRPLKIRMLDGTVKTIMVDDSKTVTDMLMTICARIGITNHDEYSLVRELMEEKKDEGTGTLRKDKTLLRDEKKMEKLKQKLHTDDELNWLDHGRTLREQGVEEHETLLLRRKFFYSDQNVDSRDPVQLNLLYVQARDDILNGSHPVSFDKACEFAGFQCQIQFGPHNEQKHKAGFLDLKDFLPKEYVKQKGERKIFQAHKNCGQMSEIEAKVRYVKLARSLKTYGVSFFLVKEKMKGKNKLVPRLLGITKECVMRVDEKTKEVIQEWSLTNIKRWAASPKSFTLDFGDYQDGYYSVQTTEGEQIAQLIAGYIDIILKKKKSKDHFGLEGDEESTMLEDSVSPKKS
notes: talin (talin-1), mouse, head domain, residues 1-429; Talin-H was cloned into pET28t and into pGST-1; also called talin head domain
B7: mouse RIAM-RAPH (149–438) (domain or fragment)
chain: T1 sequence (looked up)

Tests used:
[1] = target: membrane-anchored Rap1b_TM2 (G12V, C51S, C118S, C141S), loaded with GMP-PNP (human) (UniProt P61224); assay: co-sedimentation; vesicle co-sedimentation: 10 μM talin-H or full-length talin with 10 μM MLV-Rap1b, MLV only or MLV + Rap1b; RT 15 min, 22,000 r.p.m. 35 min; pellet on SDS-PAGE, band normalized to MLV only
mouse talin-H (1–429) [2] = target: B6; assay: NMR titration; 2D HSQC of 45 μM GMP-PNP loaded 15N-labeled Rap1b (1–167) without and with 90 or 225 μM talin-F0, 90 μM talin-H or 45 μM full-length talin; 25 °C; 25 mM NaH2PO4/Na2HPO4 pH 6.8, 150 mM NaCl, 5 mM MgCl2, 2 mM DTT; conditions: both partners purified
mouse full-length talin [3] = target: T3, mouse full-length talin (mouse, UniProt P26039 1-2541); assay: as above; conditions: both partners purified
T3 construct: talin (talin-1), mouse, full length, in pET28t

[4] = target: T1, mouse RIAM-RAPH (149–438); assay: MST; 100 nM GFP-Rap1b (G12V) with serial dilutions of the partner; 50 mM Tris-HCl pH 7.5, 100 mM NaCl, 5 mM MgCl2, 2 mM DTT, 0.05% Tween 20; RT; conditions: both partners purified
mouse talin-H (1–429) [5] = target: B6; assay: pull-down; GST pull-down of Fig. 3b, Rap1b with GDP or GTP analog; ~25 μg GST-fused protein on glutathione-Sepharose 4B, 4 °C, 25 mM Tris-HCl pH 7.5, 150 mM NaCl, 5 mM MgCl2, 1 mM DTT, 0.01% NP-40; conditions: both partners purified
mouse full-length talin [6] = target: T3, mouse full-length talin; assay: as above; conditions: both partners purified
mouse talin-H (1–429) [7] = target: B6; assay: ITC; 200 μM talin-H in the syringe into 15 μM LUV-Rap1b (GMP-PNP) in the cell; 25 °C; 25 mM NaH2PO4/Na2HPO4 pH 6.8, 100 mM NaCl, 5 mM MgCl2; single-site model; conditions: both partners purified
[8] = target: T4, GFP-Rap1b (G12V), loaded with GMP-PNP (human, UniProt P61224 1-184, G12V); assay: MST; GMP-PNP loaded
[9] = target: T2, Rap1b (G12V), loaded with GMP-PNP …; assay: NMR titration; HSQC titration of 45 μM 15N-labeled talin-F0 with increasing GMP-PNP-loaded Rap1b (G12V); average Kd of four residues; conditions: both partners purified
[10] = target: membrane-anchored Rap1b_TM2 (G12V, C51S, C118S, C141S), loaded with GMP-PNP (human, UniProt P61224 1-184, G12V | C51S | C118S | C141S, thiol group of Cys 180 joined to the maleimide group of the lipid PE MCC in vesicles); assay: ITC; LUV-anchored Rap1b, GMP-PNP; 2nd experiment
[11] = target: T4, GFP-Rap1b (G12V), loaded with GMP-PNP; assay: MST; GMP-PNP loaded; estimated, saturation not reached
[12] = target: B4; assay: co-sedimentation; vesicle co-sedimentation: 10 μM talin-H or full-length talin with 10 μM MLV-Rap1b, MLV only or MLV + Rap1b; RT 15 min, 22,000 r.p.m. 35 min; pellet on SDS-PAGE, band normalized to MLV only; conditions: both partners purified

- fold co-sedimentation with vesicles, Rap1b anchored against MLV only [1]: 3 fold
Molecule: mouse full-length talin, P26039 1-2541

Molecule: B1
- binding result (mouse talin-H (1–429) [2]): binds
- binding result (mouse full-length talin [3]): binds

Molecule: B2
- binding result [4]: binds

Molecule: B3
- binding result (mouse talin-H (1–429) [5]): binds
- binding result (mouse full-length talin [6]): binds

Molecule: B4
- Kd (mouse talin-H (1–429) [7]): ~1.52 µM

Molecule: B5
- Kd [8]: 237 µM
- Kd [9]: ~162 µM

Molecule: B6
- Kd [10]: 3.64 µM
- Kd [11]: ~147 µM
- fold co-sedimentation with vesicles, Rap1b anchored against MLV only [12]: ~1.5 fold

Molecule: B7
- Kd [8]: 5.3 µM
